Measured values reported in the DeepSol protein solubility set.

Test: soluble on expression in E. coli; label from the status in PepcDB or PDB records

| Sequence | soluble on expression in E. coli |
| --- | --- |
| MGSDKIHHHHHHMLSRQGEYKSWEITEAVLPVASNQEEAKNILTDTNVATITKFYGRYQDFMEMPAPAEKVAEYLNAHALWFSRCAEPMKVQLLGENGYALVIGRFGAFGYEVEPKIGLELLPPEEGIYRIRTIPIPDYQSPGYDVDYRASLQLIENDACSSGEVTRVEWELDLIVDLHFPRFIQRLPKSIIQSTGDRLLNQIVRQVSRRLTRKVQQDFQKSLEIPFSGNSKQKR | not soluble |
| SFAAIASGNPLQLSVEVPNSNGLQHTIVLSRTKPKLYSHITLFILPNVTFPQDYIATVYFKLSPQEEFKLFGYLSSEKPSAIFKVQIPSSKKDAGDTSDGLGEIDMDVDDGSGAADPFTDTNGSSSNNISELIIGISIEPREQGMMKLEEWKASMNAEAQKNNSLILSRPNLGIIRNITTAGQLAQVYPSLTQELAAKIVQHAYNYLSGFLDAQGNVPIKRFDTWWDKFRNRLANDGTFLDEVTKN | soluble |
| MLIPGAHYRGDVPMYPASVVKLFYLVACHEWLHSGMLQPDAELERAMRDMIVDSSNDATSLVVDMLTGTTSGPVLPPEPFRTWQYQRNIVNRYFQSLGWPELTQINVNQKTWCEGPYGREQEFVGRDRQNANRLTTNATAKLIHSIVGGVAVSASASQGMMELMERSLDPELLAQDPENQVQGFLGEGLPPGAKLWSKAGLTSWVRHDAAYIELPDRCPYTLVVFMENSTASKNTEVLPFISRQIASGILEHHHHHH | not soluble |
| MGSDKIHHHHHHRFMRIMMTSVLNNTKTQKVKFWLLKNYLSPKFKETIPKLAEFYKFEFELVEYKWPKWLHKQTEKQRVMWGYKILFLDVLFPLNVDKIIFVDADQVVRADLQELMDFNLNGAPYGYVPFCESRTEMDGFRFWKSGYWKNHLMGRKYHISALYVVDLKAFREFSAGDRLRGRYDSLSADPNSLSNLDQDLPNNMLHEVPIKSLPQEWLWCETWCDDGSKEKAKTIDLCNNPLTKEPKLNSAKRIIKEWTEYDSEISKVLNSADINTPSPSVDRDEL | not soluble |
| MGSDKIHHHHHHMDEIARFLRSYPPFDRLPEQVVHQIAGELQIEFVRAGQTILTKGGEPSSFLYIVCKGSVDLLRSEDQVVDTLGPGEAFGHPSLIRGQPPLVTVRAHTDTLLYLLPGAIFHRLRAEQPQFAAFFAASVIERLGYALQSRQSESNPALFQTRLRDLVARPPVSISPEATVGDAARLMRDERISSLIVEHTPIGIITDRDLRNRVLAEGLPDTTPVRQVMSAPATTIAADALAFEGLLLMLERGIHHLPLVEGDRVVGVVTHTDILRRQSNSPLFLPRLLQRATSLADLRRYTDQVADAVFTLTAAGARVSDIGRVVAVAHDALLQRLIHDAEAQLGPPPVPYAWLVLGSEGRYEQTLRTDQDNALVYDDSASADDVRYFEQLATLVVDWLVECGFPRCPGNIMATNPEWRQSLATWQRYFHRWIEIPDEESLLRIAIFFDYRQVYGQLPAEPVLRTITQHAAEHRIFMARLARAALRQPAPLTFFRQVALERRGDPRDL | not soluble |
| MSLQIVPYLIFNGNCREAFSCYHQHLGGTLEAMLPFGDSPECGDIPADWKDKIMHARLVVGSFALMASDNHPAYPYEGIKGCSISLNVDSKAEAERLFNALAEGGSVQMPLGPTFWAASFGMFTDRFGVAWMVNCEQDREGGSHHHHHH | soluble |
| MGSDKIHHHHHHMTLPATITHQEKLLTVDTTAHPFLKALGGHEGTDIFPLFMDPYNGLMVMRASFAPGLTLPLHFHTGTVHMYTISGCWYYTEYPGQKQTAGCYLYEPGGSIHQFNTPRDNEGQTEVIFMLSGCNVNFTQDGTYLGLSDAGVIKNWVDRAIREQDNGLRYIAAAVPTYAA | not soluble |
| MAHHHHHHMGWFRSSASPEAGTATAEAPAAAAEHGSQHRQPQPEANSPAPLTEAEQLDLLVAGARLDDTEAQDTARFLGSNRRHMYADGLLSCAAYTFSGLHHIQGQSSALTLLTMWTVGTTFLVDVAERKYLQESLQGTLRTAKTTSEAEKPLLLDQPPHNATPASTPRKAAVVPAMPTSSDSLSSAIKKPAPRDKEKLAEQQRKVFLTQAVASWLWMLASFQQFKVHKRLKWCGYSSWMGLGCAGYYTTRHLYNLLVK | soluble |
| MIITTSRKPSQRTRSLVNDLARVFNFKILNRGKIPLSELIENKDDMIIVEELKGNPGRLKIFNFENNKILSMNLSLKLQREVSGKAFKNSGKLGSKFDKNTEHLKEFFFEYLFKKLSNYKEENFEVVITFKTVDESTFYIEVHKGSENMGPSLKIKTVKILDIELEHHHHHH | not soluble |
| GSVLEPLKVVWAKCSGYPSYPALIIDPKMPRVPGHHNGVTIPAPPLDVLKIGEHMQTKSDEKLFLVLFFDNKRSWQWLPKSKMVPLGIDETIDKLKMMEGRNSSIRKAVRIAFDRAMNHLSRVHGE | soluble |
| MAHHHHHHMHRASRIAAAPFKSVLRRHKHHPEGLPLYNEMSKQWLCREGERWWILDAKGEQLPRVAAVAAQYITGQHRPDFTPGMISGDHVIIVNIKDVVMVGDEWIRVPITWQTAYPGGKYRIRLTDMYERDPCMLMWWFLKDEVNRHFVRKLKTRVAPLEKAWLYEDSVHPHGEKNPRPLCWSDPVVRGWKYTDPQFIRRWKPNEFIT | not soluble |
| DAQNYFQATEIRTMIALLQLIDNPYQDIPLAAVLRSPIVGLKENELVLIRLANKETSYYEAFLTFNQKMEPTMEEAVVQEKTIRFAESLEKWREQARRNQISNLLWTIYRETAYLDYVGGLPVGKQRQANLYALVDRAAAYEKTTFRGLFQFVRFIEKMQEKDKDLAEPVVLSEENAVRV | not soluble |
| MGSDKIHHHHHHMDVWKVLGRYSNVLVLSKKNSILILEINGKAPKPGESVRVWNNRVMTGKELKAKLLAHFDEELSLKVLKVPGLLEFLHDISRGFDKKYVHFVKLFVKHLVPSRFLKMNNEEKKIIMKSFPEVFESGPSSVRIRFSVKSFFEYVQKNFPINRNINEEALRRTVTLKRPILSTEEYDVYQMNEPLSKGFAGKNYMALPLSGKYLIVVFRRRNFPFVEFKLKEEPDLTFFEDFVNDKVAVEKRENGWVLIWKDREMMEFELPDKELLPRPEKLVDDDLLDAVFLLNSLLEENVRFASMPSFGVQEMWWEKDNNRVILVVNTVRFGRVVADVILEGRSLSVRFYAEKNSEELSAHSEELQKEFERLGLIAHVFFLRKDPMNWEGFNAYG | not soluble |
| MKVISLKKDSFNKGGAVITLLPEDKEDLFTVYQIVDKDDELIFKKKFTSKLDEAGKKKSTDLVKLKIKVISEDFDMKDEYLKYKGVTVTDESGASNVDIPVGKYLSFTLDYVYPFTIIKQNFNKFMQKLLNEACNIEYKSDTAAVVLQEGIAHVCLVTSSSTILKQKIEYSMPKKKRTTDVLKFDEKTEKFYKAIYSAMKKDLNFDKLKTIILCSPGFYAKILMDKIFQYAEEEHNKKILDNKGMFFIAHCSTGYLQGINEVLKNPLYASKLQDTKYSKEIMVMDEFLLHLNKDDDKAWYGEKEVVKAAEYGAISYLLLTDKVLHSDNIAQREEYLKLMDSVESNGGKALVLSTLHSLGEELDQLTGIACILKYPLPDLDEDDGEE | soluble |
| MQSTIRKQLLQVFSEADGEFVSGQTISDKLGCSRTAVWKHMEDLRNEGYELEAVRRLGYRIASKPDKVTANEIQLGLQTKHIGRTVYFEESVESTQHIAAKLAYEGAEEGTIVVAEEQTAGRGRLSRKWHSPKGTGIWMSIILRPSIPVHHAPQLTLLAAVSVAQAIEKCTGVNVGIKWPNDILIQGKKAVGILTEMQADPDKINAVIMGIGINANQKQEHFDEEIQHIATSLAIESGKPIVRAELMQQIFLQLEKLYEEYLQNGFSVIKILWESYAVSIGKEINARTMRETITGVAKGITEDGVLLLEDHEGKVHHIHSADIEIK | not soluble |
| GSHMGGGGGIVLFVDFDYFYAQVEEVLNPSLKGKPVVVCVFSGRFEDSGAVATANYEARKFGVKAGIPIVEAKKILPNAVYLPMRKEVYQQVSSRIMNLLREYSEKIEIASIDEAYLDISDKVRDYREAYNLGLEIKNKILEKEKITVTVGISKNKVFAKIAADMAKPNGIKVIDDEEVKRLIRELDIADVPGIGNITAEKLKKLGINKLVDTLSIEFDKLKGMIGEAKAKYLISLARDEYNEPIRTRVRKSIGRIVTMKRNSRNLEEIKPYLFRAIEESYYKLDKRIPKAIHVVAVTEDLDIVSRGRTFPHGISKETAYSESVKLLQKILEEDERKIRRIGVRFSKFIEAIGLDKFFDT | soluble |
| MSLEEATVEDIMIPRTEIVGIDLDDPWSETLERLTNSQYTRMPVYRGTVDHVMGFVHVRRIVGDLVRGNFTPEDLQARLKEPFFIPEGTGLHTQLLKFQRQRERVGLVVDEYGEILGLAALDDILEEIVGEFTTDPGTLTRSINRQDDGTYLVEGSATVRELNRVLGWELETSGPKTLNGLILERLETIPEAGTSLLIDGYPVTIVQTQGNRVKTAEIQPERPPSVQREGHHHHHH | soluble |
| MSLRPTMADVAREAGVSLSTVDRVLNLRADVRTDTAQRIAAAAALLGFHAKGVIEQRILNDKPTVRLGFLLQKSGVAFYKGLAQALSNAAATFTRARVQVVIGYLDDLDPATVAQRLLALGDQVDGVGMVAVDHPRVRDAVASLQVAGVPVVALISELAGLGSASYVGVDNRLMGRTAGWFVTRLAGSPGSAAVMVSSQRFQCQELCEMSFRSYLSSHSTDWELLASRLTLEDDDFAYGNALDLLSGEPELSALYVAGGGVAGVLRALRELQQQQIRLPVVVCHDLTPLTREALKADLVQVVLSHPIVQVAEQTVRALVAASSDLTRVARVTVPIQVDVSESIAEGHHHHHH | soluble |
| GMTLAALCQGVLERLDPRQPGRQLVALSGAPGSGKSTLSNPLAAALSAQGLPAEVVPMDGFHLDNRLLEPRGLLPRKGAPETFDFEGFQRLCHALKHQERVIYPLFDRARDIAIAGAAEVGPECRVAIIEGNYLLFDAPGWRDLTAIWDVSIRLEVPMADLEARLVQRWLDHGLNHDAAVARAQGNDLANARAIEAARLPADLTWPQA | soluble |
| MGHHHHHHGGHMSLNSTSSPTIAVTAATGKLGQLVVSSLLERGVPADHIVAIVRNPAKAQGLFAPGVQIRQADYNSPEGWDRALAGVQRLLLISSSDLNDRADQHRTVIEAASAAGVELLAYTSLLKADTARMSLAADHQATEKLLTESGVPFVLLRNGWYLENYDLAQALQTGSVLGAAGTGRISAASRKDLAEAAAAALTRDGQAGKVYELAGDEAFSLSELAAELSKQSGKDVQYRNFAPEDYQRTLEGFGLPAPVAQMLVSSDEGVARGELELPNSDLRELIGRPSTSLKEAVASQLAEGGS | soluble |
| MGHHHHHHSHMSNWLEHSVQVEVEAPIDLVWGLWADLEQMPNWMKWIDSVKVPPENPDLSLWKLNTGGLEFTWKSRITKVITNQIIQWESIDGLPNQGAIRFYDRHGHSIVKMTISYAIPGFLGKIMDNLFLG | not soluble |
